Source: patent publication EP1891228B1 (Janssen Pharmaceutica NV, dated 2016)

Target: HDAC1-flag (Homo sapiens (Human), UniProt Q13547 1-482)
Assay: cell-based or functional assay

Chain of HDAC1-flag (Q13547 whole entry, form in doubt): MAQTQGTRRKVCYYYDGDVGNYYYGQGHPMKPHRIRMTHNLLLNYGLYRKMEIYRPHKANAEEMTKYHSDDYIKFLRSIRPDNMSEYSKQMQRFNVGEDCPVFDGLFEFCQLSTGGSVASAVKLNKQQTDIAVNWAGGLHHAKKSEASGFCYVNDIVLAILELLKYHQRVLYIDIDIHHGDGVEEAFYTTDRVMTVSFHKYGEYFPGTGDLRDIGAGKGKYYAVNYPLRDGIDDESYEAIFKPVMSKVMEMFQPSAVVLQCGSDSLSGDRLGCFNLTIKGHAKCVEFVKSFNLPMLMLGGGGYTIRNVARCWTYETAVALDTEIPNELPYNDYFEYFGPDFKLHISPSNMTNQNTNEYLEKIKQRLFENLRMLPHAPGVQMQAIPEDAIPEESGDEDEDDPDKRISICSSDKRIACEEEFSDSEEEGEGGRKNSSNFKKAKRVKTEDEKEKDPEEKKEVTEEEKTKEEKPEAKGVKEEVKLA

B1: V5-APPL (full length APPL) (other, not shown: small tags and cut ends)
chain: MPGIDKLPIEETLEDSPQTRSLLGVFEEDATAISNYMNQLYQAMHRIYDAQNELSAATHLTSKLLKEYEKQRFPLGGDDEVMSSTLQQFSKVIDELSSCHAVLSTQLADAMMFPITQFKERDLKEILTLKEVFQIASNDHDAAINRYSRLSKKRENDKVKYEVTEDVYTSRKKQHQTMMHYFCALNTLQYKKKIALLEPLLGYMQAQISFFKMGSENLNEQLEEFLANIGTSVQNVRREMDSDIETMQQTIEDLEVASDPLYVPDPDPTKFPVNRNLTRKAGYLNARNKTGLVSSTWDRQFYFTQGGNLMSQARGDVAGGLAMDIDNCSVMAVDCEDRRYCFQITSFDGKKSSILQAESKKDHEEWICTINNISKQIYLSENPEETAARVNQSALEAVTPSPSFQQRHESLRPAAGQSRPPTARTSSSGSLGSESTNLAALSLDSLVAPDTPIQFDIISPVCEDQPGQAKAFGQGGRRTNPFGESGGSTKSETEDSILHQLFIVRFLGSMEVKSDDHPDVVYETMRQILAARAIHNIFRMTESHLLVTCDCLKLIDPQTQVTRLTFPLPCVVLYATHQENKRLFGFVLRTSSGRSESNLSSVCYIFESNNEGEKICDSVGLAKQIALHAELDRRASEKQKEIERVKEKQQKELNKQKQIEKDLEEQSRLIAASSRPNQASSEGQFVVLSSSQSEESDLGEGGKKRESEA
HDAC1 activity: release of acetic acid from a [3H]acetyl-labeled Histone H4 peptide by immunoprecipitated HDAC1: ~4 fold
